Common to all, as to assay: crystal structure
Assay [1] has as its target SARS-CoV-2 M^pro G15S (SARS-CoV-2).
The target of assay [2] is SARS-CoV-2 M^pro K90R (SARS-CoV-2).
Assay [3] has as its target SARS-CoV-2 M^pro M49I (SARS-CoV-2).
The target of assay [4] is SARS-CoV-2 M^pro P132H (SARS-CoV-2).
Assay [5] deals with SARS-CoV-2 M^pro S46F (SARS-CoV-2).
Assay [6] concerns the target SARS-CoV-2 M^pro V186F (SARS-CoV-2).
The target in assay [7] is SARS-CoV-2 M^pro Y54C (SARS-CoV-2).

For SARS-CoV-2 M^pro G15S (enzyme), the stoichiometry N in assay [1] was 2.
As for SARS-CoV-2 M^pro K90R (enzyme), the stoichiometry N in assay [2] came out at 2.
On to SARS-CoV-2 M^pro M49I (enzyme), for which, in assay [3], the stoichiometry N was found to be 2.
Turning to SARS-CoV-2 M^pro P132H (enzyme), the stoichiometry N in assay [4] amounted to 2.
SARS-CoV-2 M^pro S46F (enzyme): the stoichiometry N in assay [5] was determined as 2.
In turn, SARS-CoV-2 M^pro V186F (enzyme) registered a stoichiometry N in assay [6] of 2.
In turn, SARS-CoV-2 M^pro Y54C (enzyme) showed a stoichiometry N in assay [7] of 2.

(Values after doi:10.1101/2024.04.22.590578.)
